Test results from patent publication EP0363874A1, “Enzymes bound to a polymer matrix in water-soluble form” (Etablissement TEXCONTOR, priority 1988, dated 1990).

B1: DAS.2: papain grafted onto starch polyaldehyde (DAS) of aldehyde titre 5.8 x 10⁻³ meq CHO/mg and reduced with sodium borohydride (conjugate, UniProt P00784 134-345, looked up)
Papain: IPEYVDWRQKGAVTPVKNQGSCGSCWAFSAVVTIEGIIKIRTGNLNEYSEQELLDCDRRSYGCNGGYPWSALQLVAQYGIHYRNTYPYEGVQRYCRSREKGPYAAKTDGVRQVQPYNEGALLYSIANQPVSVVLEAAGKDFQLYRGGIFVGPCGNKVDHAVAAVGYGPNYILIKNSWGTGWGENGYIRIKRGTGNSYGVCGLYTSSFYPVKN
modifications: grafted onto starch polyaldehyde, borohydride-reduced
notes: papain grafted onto starch polyaldehyde (DAS) of aldehyde titre 5.8 x 10⁻³ meq CHO/mg and reduced with sodium borohydride
B2: DAS.3: papain grafted onto starch polyaldehyde (DAS) of aldehyde titre 8 x 10⁻³ meq CHO/mg and reduced with sodium borohydride (conjugate, UniProt P00784 134-345, looked up)
Papain: B1 Papain
modifications: grafted onto starch polyaldehyde, borohydride-reduced
notes: papain grafted onto starch polyaldehyde (DAS) of aldehyde titre 8 x 10⁻³ meq CHO/mg and reduced with sodium borohydride
B3: DAS.1: papain grafted onto starch polyaldehyde (DAS) of aldehyde titre 3.16 x 10⁻³ meq CHO/mg and reduced with sodium borohydride (conjugate, UniProt P00784 134-345, looked up)
Papain: B1 Papain
modifications: grafted onto starch polyaldehyde, borohydride-reduced
notes: papain grafted onto starch polyaldehyde (DAS) of aldehyde titre 3.16 x 10⁻³ meq CHO/mg and reduced with sodium borohydride
B4: DAS.4: papain grafted onto starch polyaldehyde (DAS) of aldehyde titre 4.68 x 10⁻³ meq CHO/mg and reduced with sodium borohydride (conjugate, UniProt P00784 134-345, looked up)
Papain: B1 Papain
modifications: grafted onto starch polyaldehyde, borohydride-reduced
notes: papain grafted onto starch polyaldehyde (DAS) of aldehyde titre 4.68 x 10⁻³ meq CHO/mg and reduced with sodium borohydride

Legend:
[1] = Stability in aqueous solution (retention of enzyme activity); type: physicochemical
[2] = Proteolytic activity of papain grafted onto DAS, American Pharmacopeia method (USP XXI); type: biochemical; details: papain grafted onto DAS preparations of variable aldehyde titre
Procedure: (§1) The proteolytic activity of the product of Example 1 was determined by the American Pharmacopeia method (USP XXI). Various DAS preparations of variable aldehyde titre were used, obtained by varying the reaction times, in order to establish a comparison between the aldehyde titre, the solubility of the enzymatic preparation and the activity of this latter.

[3] = Stability in solid state (retention of enzyme activity); type: physicochemical
[4] = Release of enzyme from the polymer matrix; type: physicochemical; details: aqueous solution
[5] = Water solubility of the supported enzyme; type: physicochemical; details: for WATER SOLUBILITY: papain grafted onto DAS preparations of variable aldehyde titre
Procedure: as §1

| Molecule | time for which the activity is maintained [1] | µg OF ACTIVE PAPAIN per 100 mg POLYMER [2] [µg per 100 mg POLYMER] | time for which the activity is maintained [3] | time without release of enzyme [4] | water-solubility ([5]; lyophilized product) | WATER SOLUBILITY [5] |
| --- | --- | --- | --- | --- | --- | --- |
| B1 | at least six months | 900 | at least two years | at least six months | good water-solubility | YES |
| B2 |  | 200 |  |  |  | YES |
| B3 |  | 800 |  |  |  | MICELLE |
| B4 |  | 500 |  |  |  | YES |
